# Laboratory results taken from the nanobody polyreactivity screen of Harvey et al. (2022).
# Assay: yeast display, Sf9 membrane polyspecificity reagent, FACS + sequencing; frameworks hold sequencing errors
# How it was run: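 Nanobodies came from a synthetic yeast display library in Saccharomyces cerevisiae BJ5465, induced with galactose for 36–48 hours and stained for 1 hour at 4 °C with 10% biotinylated, detergent-solubilized Sf9 membrane reagent. Cells were enriched on streptavidin microbeads and then FACS-sorted, with low and high (top ~1%) gates set on anti-HA fluorescence for expression and streptavidin fluorescence for reagent binding. Each polyreactivity label reflects the gate a clone came from. Genes were amplified by colony PCR, sequenced by MiSeq 2 × 250 and filtered by CDR length.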
row,Sequence,polyreactivity (PSR sort gate)
1,QVQLVESGGGLVQAGGSLRLSCAASGRTFILNAMGLYRQAPGKERELVAAISWSGGSTYYADSVKGRFTISRDNAKNTVYLQMNSLKPEDTAVYYCAAETYAYLFHTYDYWGQGTQVTVSS,low polyreactivity
2,QVQLVESGGGLVQAGGSLRLSCAASGRTFINYAMGWYRQAPGKERELVAAITTGGRTNYADSVKGRFTISRDNAKHTVYLQMNSLKPEDTAVYYCAADRYYWGRYTLNYWGQGTQVTVSS,low polyreactivity
3,QVQLVESGGGLVQAGGSLRLSCAASGRTFIRYAMGGYRQATGKERELVAAISWSGGSTYYADSVKGRFTISRDNAKNTVYLQMNSLKPEDTAVYYCARRVGYKFSYDYWGQGTQVTVSS,high polyreactivity
4,QVQLVESGGGLVQAGGSLRLSCAASGRTFIRYTMGWYRQASGKERELVAAITSTGRTYYADSVKGRFTFSRDNAKNTVYLEMNSLKPEDTAVYYCAAKQSWEVYDYWGQGTQVTVSS,low polyreactivity
5,QVQLVESGGGLVQAGGSLRLSCAASGRTFISNVMGWYRQAPGKERELVAAIRSSGRTYYADSVKGRFTISRDNAKNTVYFQMNSLKPEDTAVYYCAAPGGLLGSGYWGQGTQVTVSS,low polyreactivity
6,QVQLVESGGGLVQAGGSLRLSCAASGRTFIVNTMGRYRQAPGKERELVAAITARGGRTYYADSVKGRFTISRDNAKNTVYLQMNSLKPEDTAVYYCNARTPPREAERYYWGLGTQVTVSS,low polyreactivity
7,QVQLVESGGGLVQAGGSLRLSCAASGRTFIYNTMGGYRQAPGKERELVAAITGNGGSTYYADSVKGRFTISRDYEKNTVYFQMNSLKPEDTAVYYCNAVGFDQPRYYYWGQGTQVTVSS,high polyreactivity
8,QVQLVESGGGLVQAGGSLRLSCAASGRTFIYNVMGWYRQAPGKERELVASIRSSGGSTYYADSVKGRFTISRDNAKNTVYLQMNSLKPEDTAVYYCAADRSPGIRGWPGDYWGQGTQVTVSS,low polyreactivity
9,QVQLVESGGGLVQAGGSLRLSCAASGRTFIYYAMGWYRQAPGKERELVAGITYSVGSTYYADSVKGRFTISRDNEKNTVYLQMNSLKPEDTAVYYCAYYYWGQGTQVTVSS,low polyreactivity
10,QVQLVESGGGLVQAGGSLRLSCAASGRTFKDYAMGWYRQAPGKERELVAGINGSGGSTYYADSVKGRFTISRDYAKNTVYLQMNSLKPEDTAVYYCNADFGYWWDGRRYDYWGQGTQVTVSS,low polyreactivity
11,QVQLVESGGGLVQAGGSLRLSCAASGRTFKGYAMGWYRQAPGKERELVAAITGSVGSTYYADSVKGRFTISRDNAKNTVYLQMNSLKPEDTAVYYCAKRWKATRARYDYWGQGTQVTVSS,high polyreactivity
12,QVQLVESGGGLVQAGGSLRLSCAASGRTFKHYVMGWYRQAPGKERELVATISGGGGTYFADSVKGRFTISRYNAKYTVYLQMNSLKPEVTAVYYCAARYPRGSRTWSFDSNKQRDYWGQGTQVTVSS,low polyreactivity
13,QVQLVESGGGLVQAGGSLRLSCAASGRTFKKYAMGWYRQAPGKERELVAAITGSGGSTYYADSVKGRFTISRDNAKNTVYLQMNSLKPEDTAVYYCAAEVVAQMNYWGQGTQVTVSS,low polyreactivity
14,QVQLVESGGGLVQAGGSLRLSCAASGRTFKKYAMGWYRQAPGKERELVAAITGSGGSTYYADSVKGRFTISRDNAKNTVYLQMNSLKPEDTAVYYCAAYAYGVWHSQDGGNYWGQGTLVTVSS,low polyreactivity
15,QVQLVESGGGLVQAGGSLRLSCAASGRTFKLYAMGWYRQAPGKERELVAALSIRGTSTYYADSVKGRFTISRDNAKNTVYLQMNSLKPEDTAVYYCAAEDRYGYYLVRWQGYYYWGQGTQVTVSS,low polyreactivity
16,QVQLVESGGGLVQAGGSLRLSCAASGRTFKNYAMGSYRQAPGKERELVAAISWRSGSTNYADSVKGRCTISRDNAKNTVYLQMNSLKPEDTAVYYCARKRRISGWSQFTSYADFDYWGQGSQVTVSS,low polyreactivity
17,QVQLVESGGGLVQAGGSLRLSCAASGRTFKNYAMGWYRQAPGKERELVAAISRRGSSTYYADSVKGRFTISRDNAKNTVYLQMNSLKPEDTAVYYCNAVKFTYGWLGYWGQGTQVTVSS,high polyreactivity
18,QVQLVESGGGLVQAGGSLRLSCAASGRTFKPYAMGWYRQAPGIERELVARISGSGGSTYYADSVKGRFTISRDNGKNTVYLQLNSLKPEDTAVYYCATTPYYWFDYWGQGTQVTVSS,low polyreactivity
19,QVQLVESGGGLVQAGGSLRLSCAASGRTFKPYAMGWYRQAPGKERELVAAISSGVSTHYADSVKGRFTISRDNAKNTVYLQMNSLKPEDTAVYYCAADRSSQFDLDYWGQGTRVTVSS,low polyreactivity
20,QVQLVESGGGLVQAGGSLRLSCAASGRTFKPYAMGWYRQAPGKERELVAVISSTGSTKYADSVKGRFTISRDNAKNTVYLQMNSLKPEDTAVYYCAAQNTYIYYWGQGTQVTVSS,high polyreactivity
21,QVQLVESGGGLVQAGGSLRLSCAASGRTFKQYAMGCYRQAPGKERELVAVITRTGGSTYYADSVKGRFTISRDNAKNTVYLLMNSLKPEDTAVYYCARYPPRGYIAWRYYDYDYWGQGTQVTVSS,high polyreactivity
22,QVQLVESGGGLVQAGGSLRLSCAASGRTFKSYALGWYRQAPGKERELVATITRDGRTNYADSVKGRFTISRDNAKNTVYLQMNSLKPEDTAVYYCNADSRYRYDYWGQGTQVTVSS,low polyreactivity
23,QVQLVESGGGLVQAGGSLRLSCAASGRTFKTYAMVWYRQAPGKERELVAAISRDGRTYYADSVKGRFTISRDNAKNTVYLQMNSLKPEDTAVYYCNKRSYRNGDYWGQGTQVTVSS,low polyreactivity
24,QVQLVESGGGLVQAGGSLRLSCAASGRTFKVYAMGWYRPAPGKERELVAAISGSGGSTYYADSVKGRFTISRDNAKNTVYLQMNSLKPEDTAVYYCATDPSAPYTQLSSYYYWGQGTQVTVSS,low polyreactivity
25,QVQLVESGGGLVQAGGSLRLSCAASGRTFKWYAMGWYRQAPGKERELVAAISSSGSTYYADSVKGRFTISRDNAKNTVYLQMNSLKPEDTAVYYCAVLRRYLVGNLVGYNYWGQGTQVTVSS,high polyreactivity
26,QVQLVESGGGLVQAGGSLRLSCAASGRTFKYNAMGWYRQAPGKEREFVAAISSRGGSTYYADSVKGRFTISRDNAKNTVYLQMNSLKPEDTAVYYCNKLYGTRWSGLADDYWGQGTQVTVSS,high polyreactivity
27,QVQLVESGGGLVQAGGSLRLSCAASGRTFKYNAMGWYRQAPGKERELVAAISSRGGSTYYADSVKGRFTISRDNAKNTVYLQMISLKPEDTAVYYGANATSSSEYGYDYWGQGTQVTVSS,high polyreactivity
28,QVQLVESGGGLVQAGGSLRLSCAASGRTFKYNVMGWYRPAPGKERELVAAISSGGGTNYADSVKGRFTISRDNAKKTVYFQINSLKPEDTAVYYCAAKYAWRLLEMYYWGQGTQVTVSS,low polyreactivity
29,QVQLVESGGGLVQAGGSLRLSCAASGRTFKYYAMGCYRQARGKERELVAAISGSGGSTYYADSVKGRFTISRDNAKNTVYLQMNSLKPEDTAVYYCATGGGKTRSYNYWGKGTQVTVSS,high polyreactivity
30,QVQLVESGGGLVQAGGSLRLSCAASGRTFKYYAMGWYRQAPGKERELVAAISRSGGSTYADSVKGRFTISRDNAKNTVYLQMNSLKPEDTAVYYCATGWWRQGVASFDYDYWGQGTQVTVSS,high polyreactivity
